Our source for the EC50, percent inhibition of FITC-gp120Bal binding and Kd values is patent US20190000964A1.

Assay [1] deals with human CCR5 receptor (hCCR5) (human) (UniProt P51681). The assay is described as follows: inhibition of gp120/sCD4 complex binding to CCR5-expressing Cf2Th cells by competing peptide.
Assay [2] shares this target. Briefly: 0.5 nM non-labeled gp120 Bal against 0.5 nM FITC-gp120Bal on Cf2Th/synCCR5 cells with sCD4.
Assay [3] has the same target.

human CCR5 receptor (hCCR5) (human), sequence (P51681 whole entry): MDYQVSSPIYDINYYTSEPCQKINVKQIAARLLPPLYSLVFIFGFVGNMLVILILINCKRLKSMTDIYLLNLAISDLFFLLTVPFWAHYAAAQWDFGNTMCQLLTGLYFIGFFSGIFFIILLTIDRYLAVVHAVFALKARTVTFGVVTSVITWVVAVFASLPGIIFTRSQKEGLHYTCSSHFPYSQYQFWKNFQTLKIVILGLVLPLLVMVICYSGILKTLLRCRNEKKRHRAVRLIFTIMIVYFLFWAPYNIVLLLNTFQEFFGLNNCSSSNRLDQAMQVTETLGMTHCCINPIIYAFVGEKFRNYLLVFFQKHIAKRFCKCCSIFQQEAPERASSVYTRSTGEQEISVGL

All D, ttnyt (peptide) showed an EC50 in assay [1] of 2 nM. As for “gp120 Bal-sCD4 complex (from UniProt P01730 26-396)”, in assay [2], the percent inhibition of FITC-gp120Bal binding is greater than 80%. This substance displayed a Kd in assay [3] of 0.46 nM.

“gp120 CM235-sCD4 complex (from UniProt P01730 26-396)”: the Kd in assay [3] amounted to 0.77 nM.

In general, EC50 refers to the concentration needed to bring the measured effect to its halfway point. Higher therefore signals weaker potency. Broadly, the Kd is the constant that tells how readily two partners part at equilibrium. A low value points to a tighter complex.
